Reference: US20220387572A1 (CRISPR THERAPEUTICS, published 2022)

Target: T1, CD70 on human CD70+ renal cell carcinoma cell lines (A498, CD70 high; ACHN, CD70 low) (human, UniProt P32970 1-193)
T1 sequence (looked up): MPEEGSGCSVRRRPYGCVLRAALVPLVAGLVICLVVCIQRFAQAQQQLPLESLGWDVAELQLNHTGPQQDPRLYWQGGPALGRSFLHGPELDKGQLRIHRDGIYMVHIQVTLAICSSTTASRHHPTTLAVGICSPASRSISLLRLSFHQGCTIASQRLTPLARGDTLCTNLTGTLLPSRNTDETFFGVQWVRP
Experiment: cell-based or functional assay

B1: anti-CD70 CAR (CD70B scFv with 41BB), expressed on CTX130 cells (TRAC-/β2M-/CD70-/anti-CD70 CAR+ T cells) (other)
chain: QVQLVQSGAEVKKPGASVKVSCKASGYTFTNYGMNWVRQAPGQGLKWMGWINTYTGEPTYADAFKGRVTMTRDTSISTAYMELSRLRSDDTAVYYCARDYGDYGMDYWGQGTTVTVSSGGGGSGGGGSGGGGSGDIVMTQSPDSLAVSLGERATINCRASKSVSTSGYSFMHWYQQKPGQPPKLLIYLASNLESGVPDRFSGSGSGTDFTLTISSLQAEDVAVYYCQHSREVPWTFGQGTKVEIKSAAAFVPVFLPAKPTTTPAPRPPTPAPTIASQPLSLRPEACRPAAGGAVHTRGLDFACDIYIWAPLAGTCGVLLLSLVITLYCNHRNRKRGRKKLLYIFKQPFMRPVQTTQEEDGCSCRFPEEEEGGCELRVKFSRSADAPAYQQGQNQLYNELNLGRREEYDVLDKRRGRDPEMGGKPRRKNPQEGLYNELQKDKMAEAYSEIGMKGERRRGKGHDGLYQGLSTATKDTYDALHMQALPPR
With B1 the “cell killing (CellTiter-Glo), TRAC-/β2M-/CD70-/anti-CD70 CAR+ T cells on CD70+ A498 cells, 24 h, T cell:A498 ratios 1:1 and 0.5:1” value was over 90% and the “cell killing (CellTiter-Glo), TRAC-/β2M-/anti-CD70 CAR+ T cells (2xKO) on CD70+ A498 cells, 24 h, T cell:A498 ratios 1:1 and 0.5:1” value was under 90%.
